Reference: patent US20160136234A1

How the values were obtained:
Assay in all cases: cell-based or functional assay
[1] = target: cKit(V654A) (h) (human) (UniProt P10721)
[2] = target: Fgr (h) (human) (UniProt P09769)
[3] = target: T1, ALK4 (h) (human) (UniProt P36896)
T1 sequence (looked up): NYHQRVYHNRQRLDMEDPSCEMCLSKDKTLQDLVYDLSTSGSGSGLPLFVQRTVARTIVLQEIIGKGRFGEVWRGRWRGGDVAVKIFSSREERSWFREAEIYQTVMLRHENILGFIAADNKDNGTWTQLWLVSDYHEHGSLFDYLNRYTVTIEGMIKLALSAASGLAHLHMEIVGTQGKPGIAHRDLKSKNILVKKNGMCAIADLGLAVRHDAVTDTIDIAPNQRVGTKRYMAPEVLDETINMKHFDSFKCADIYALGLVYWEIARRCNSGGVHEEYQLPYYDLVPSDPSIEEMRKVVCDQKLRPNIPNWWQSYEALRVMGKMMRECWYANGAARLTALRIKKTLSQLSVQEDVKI

[4] = target: T2, NEK11 (h) (human) (UniProt Q8NG66)
T2 sequence (looked up): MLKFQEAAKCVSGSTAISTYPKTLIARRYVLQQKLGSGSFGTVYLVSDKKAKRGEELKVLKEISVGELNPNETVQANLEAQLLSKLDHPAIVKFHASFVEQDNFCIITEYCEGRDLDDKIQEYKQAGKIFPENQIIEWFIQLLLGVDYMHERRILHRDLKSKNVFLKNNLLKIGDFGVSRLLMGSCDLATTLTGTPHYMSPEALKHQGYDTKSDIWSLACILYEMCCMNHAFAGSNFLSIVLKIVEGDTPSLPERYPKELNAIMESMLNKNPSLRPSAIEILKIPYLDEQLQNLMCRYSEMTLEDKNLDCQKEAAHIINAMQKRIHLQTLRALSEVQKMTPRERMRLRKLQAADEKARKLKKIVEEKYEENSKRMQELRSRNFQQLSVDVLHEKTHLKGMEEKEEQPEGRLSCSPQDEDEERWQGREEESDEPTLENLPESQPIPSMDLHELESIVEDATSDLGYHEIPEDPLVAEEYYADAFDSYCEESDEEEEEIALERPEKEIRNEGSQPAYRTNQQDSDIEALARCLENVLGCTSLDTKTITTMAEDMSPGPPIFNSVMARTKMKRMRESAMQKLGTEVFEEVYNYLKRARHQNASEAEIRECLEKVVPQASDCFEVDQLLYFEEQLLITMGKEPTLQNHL

[5] = target: PKA (h) (human) (UniProt P17612)
[6] = target: Src(T341M) (h) (human) (UniProt P12931)
[7] = target: EphA2 (h) (human) (UniProt P29317)
Chain of EphA2 (h) (human) (P29317 559-976 limits assumed): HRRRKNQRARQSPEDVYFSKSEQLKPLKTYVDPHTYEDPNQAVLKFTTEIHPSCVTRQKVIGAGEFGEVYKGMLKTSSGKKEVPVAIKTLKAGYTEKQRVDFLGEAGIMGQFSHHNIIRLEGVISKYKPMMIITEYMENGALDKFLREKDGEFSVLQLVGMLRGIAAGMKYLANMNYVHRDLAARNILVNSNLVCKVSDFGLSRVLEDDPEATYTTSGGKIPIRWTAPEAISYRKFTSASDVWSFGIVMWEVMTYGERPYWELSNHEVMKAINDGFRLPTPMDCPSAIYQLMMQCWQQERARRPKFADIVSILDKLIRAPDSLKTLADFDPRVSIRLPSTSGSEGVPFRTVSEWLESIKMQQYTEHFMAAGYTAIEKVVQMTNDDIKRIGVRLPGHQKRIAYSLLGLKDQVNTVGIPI

[8] = target: T3, DDR2 (h) (human) (UniProt Q16832)
T3 sequence (looked up): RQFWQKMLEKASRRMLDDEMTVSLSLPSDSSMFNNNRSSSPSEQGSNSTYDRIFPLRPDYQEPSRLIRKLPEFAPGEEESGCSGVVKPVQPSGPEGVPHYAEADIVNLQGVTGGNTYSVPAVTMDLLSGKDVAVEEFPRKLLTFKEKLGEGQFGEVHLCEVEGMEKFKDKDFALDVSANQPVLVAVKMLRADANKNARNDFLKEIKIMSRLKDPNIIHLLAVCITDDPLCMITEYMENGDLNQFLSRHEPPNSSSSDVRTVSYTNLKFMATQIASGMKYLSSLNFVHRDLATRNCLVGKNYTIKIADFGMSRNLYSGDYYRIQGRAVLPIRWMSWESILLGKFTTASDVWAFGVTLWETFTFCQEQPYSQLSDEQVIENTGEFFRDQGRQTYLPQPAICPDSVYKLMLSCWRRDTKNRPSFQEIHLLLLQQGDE

[9] = target: T4, IRAK4 (h) (human) (UniProt Q9NWZ3)
T4 sequence (looked up): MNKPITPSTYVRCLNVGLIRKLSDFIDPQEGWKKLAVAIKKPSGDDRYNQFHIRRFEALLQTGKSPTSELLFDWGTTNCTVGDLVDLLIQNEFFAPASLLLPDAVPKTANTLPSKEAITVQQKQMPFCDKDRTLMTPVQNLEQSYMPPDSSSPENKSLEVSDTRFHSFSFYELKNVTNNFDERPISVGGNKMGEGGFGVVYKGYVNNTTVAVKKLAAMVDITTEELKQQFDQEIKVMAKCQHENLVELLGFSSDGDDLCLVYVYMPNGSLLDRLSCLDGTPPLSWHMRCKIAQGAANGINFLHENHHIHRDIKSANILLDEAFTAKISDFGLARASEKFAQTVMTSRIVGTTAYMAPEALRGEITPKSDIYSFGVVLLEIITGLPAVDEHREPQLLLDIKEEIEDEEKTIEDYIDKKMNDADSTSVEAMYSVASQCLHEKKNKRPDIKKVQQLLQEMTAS

[10] = target: PKBβ (h) (human) (UniProt P31751)
Chain of PKBβ (h) (human) (P31751 whole entry): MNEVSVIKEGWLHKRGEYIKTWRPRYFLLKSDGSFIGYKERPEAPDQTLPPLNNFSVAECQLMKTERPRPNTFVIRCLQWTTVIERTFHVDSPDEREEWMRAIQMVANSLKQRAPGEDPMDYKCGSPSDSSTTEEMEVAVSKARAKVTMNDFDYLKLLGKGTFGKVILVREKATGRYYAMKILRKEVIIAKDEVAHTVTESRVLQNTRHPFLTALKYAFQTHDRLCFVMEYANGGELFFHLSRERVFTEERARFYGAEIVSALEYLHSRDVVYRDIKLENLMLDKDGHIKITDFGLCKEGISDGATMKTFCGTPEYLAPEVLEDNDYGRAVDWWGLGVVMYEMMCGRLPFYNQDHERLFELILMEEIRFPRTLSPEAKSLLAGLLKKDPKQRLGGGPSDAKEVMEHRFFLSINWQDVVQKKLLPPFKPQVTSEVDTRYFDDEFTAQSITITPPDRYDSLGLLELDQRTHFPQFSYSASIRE

[11] = target: T5, MST1 (h) (human) (UniProt Q13043)
T5 sequence (looked up): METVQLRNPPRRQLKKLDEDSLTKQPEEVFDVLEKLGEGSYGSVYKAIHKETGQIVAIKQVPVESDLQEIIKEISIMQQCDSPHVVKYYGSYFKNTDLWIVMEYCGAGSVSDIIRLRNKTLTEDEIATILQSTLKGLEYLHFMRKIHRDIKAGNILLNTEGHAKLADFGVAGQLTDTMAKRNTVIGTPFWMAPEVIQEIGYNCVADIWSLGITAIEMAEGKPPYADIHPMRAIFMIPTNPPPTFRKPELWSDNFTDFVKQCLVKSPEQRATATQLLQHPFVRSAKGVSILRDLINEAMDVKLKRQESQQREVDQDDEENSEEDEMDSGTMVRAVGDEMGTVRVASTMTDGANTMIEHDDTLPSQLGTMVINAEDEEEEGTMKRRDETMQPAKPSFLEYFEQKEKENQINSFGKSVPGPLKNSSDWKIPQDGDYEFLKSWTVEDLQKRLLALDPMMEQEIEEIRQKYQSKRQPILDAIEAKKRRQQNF

Chain of cKit(V654A) (h) (human) (P10721 544-976 V654A): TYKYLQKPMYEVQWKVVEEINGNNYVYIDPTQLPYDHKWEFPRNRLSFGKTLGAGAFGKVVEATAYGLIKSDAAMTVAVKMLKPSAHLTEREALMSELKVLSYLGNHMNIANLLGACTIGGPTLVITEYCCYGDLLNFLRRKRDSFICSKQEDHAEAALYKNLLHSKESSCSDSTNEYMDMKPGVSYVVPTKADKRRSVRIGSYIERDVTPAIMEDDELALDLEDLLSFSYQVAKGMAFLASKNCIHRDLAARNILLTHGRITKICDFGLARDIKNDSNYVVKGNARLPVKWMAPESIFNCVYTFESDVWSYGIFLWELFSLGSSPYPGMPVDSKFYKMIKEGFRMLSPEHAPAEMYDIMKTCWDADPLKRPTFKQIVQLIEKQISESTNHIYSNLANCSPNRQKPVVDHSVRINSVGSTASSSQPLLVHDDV

A % activity at 100 µM [1] of 134%, a % activity at 100 µM [2] of 60% and a % activity at 100 µM [3] of 140% were found for MMI-0300 (peptide) in this work. It also gave a % activity at 100 µM [4] of 53%, a % activity at 100 µM [5] of 119% and a % activity at 100 µM [6] of 70%. For the same substance, the % activity at 100 µM [7] was 31%, the % activity at 100 µM [8] was 94% and the % activity at 100 µM [9] was 59%. For the same substance, the % activity at 100 µM [10] was 84% and the % activity at 100 µM [11] was 14%.
